Test in all cases: SEC; Sephacryl S-400R in buffer C (20 mM Na-phosphate pH 7.4, 100 mM NaCl, 0.05% dodecyl beta-maltoside); absorbance at 280 nm; apparent molecular weight by comparison to globular protein standards; self-association, hexamer
A general note: In gel filtration, larger molecules generally elute earlier.

Experiment [1] deals with AbSGR-h D34N mutant (Anaerolineae bacterium SM23_63).
Experiment [2] has as its target AbSGR-h H32A mutant (Anaerolineae bacterium SM23_63).
The target of experiment [3] is AbSGR-h T36A mutant (Anaerolineae bacterium SM23_63).
For experiment [4], the target named is AbSGR-h D62N mutant (Anaerolineae bacterium SM23_63).
In experiment [5] the target is Anaerolineae bacterium SM23_63 SGR homolog (AbSGR-h), wild-type (Anaerolineae bacterium SM23_63).

Take AbSGR-h D34N mutant (enzyme): in experiment [1], the stoichiometry N (commonly a count of units in the complex or per binding partner) is 6.
Take AbSGR-h H32A mutant (enzyme): the stoichiometry N in experiment [2] was 6.
With AbSGR-h T36A mutant (enzyme), the stoichiometry N in experiment [3] was 6.
As for AbSGR-h D62N mutant (enzyme), the stoichiometry N in experiment [4] is 6.
Turning to “Anaerolineae bacterium SM23_63 SGR homolog (AbSGR-h), wild-type (enzyme)”, the stoichiometry N in experiment [5] was 6.

These data come from article PMC8531759.
